Substitutions are numbered along the chain they refer to.
B1: Clone No. 1 (antibody, human IgG4 S228P, kappa, V domains shown)
VH: EVQLVQSGAEVKKPGESLRISCKGSGYTFTTYWMHWVRQATGQGLEWMGNIYPGTGGSNFDEKFKNRVTITADKSTSTAYMELSSLRSEDTAVYYCTRWTTGTGAYWGQGTTVTVSS
VL: EIVLTQSPATLSLSPGERATLSCKSSQSLLDSGNQKNFLTWYQQKPGQAPRLLIYWASTRESGVPSRFSGSGSGTEFTLTISSLQPDDFATYYCQNDYSYPYTFGQGTKVEIKR
B2: Clone No. 12 (antibody, human IgG4 S228P, kappa, V domains shown)
VH: B1 VH
VL: DIQMTQSPSSLSASVGDRVTITCKSSQSLLDSGNQKNFLTWYLQKPGQSPQLLIYWASTRESGVPSRFSGSGSGTDFTFTISSLEAEDAATYYCQNDYSYPYTFGQGTKVEIKR
B3: Clone No. 5 (antibody, human IgG4 S228P, kappa, V domains shown)
VH: B1 VH
VL: B1 VL with Q48K, R51K, E76D, L79F, D87E, F89I
B4: Clone No. 4 (antibody, human IgG4 S228P, kappa, V domains shown)
VH: EVQLVQSGAEVKKPGESLRISCKGSGYTFTTYWMHWIRQSPSRGLEWLGNIYPGTGGSNFDEKFKNRFTISRDNSKNTLYLQMNSLRAEDTAVYYCTRWTTGTGAYWGQGTTVTVSS
VL: B1 VL with Q48K, R51K, E76D, L79F, D87E, F89I
B5: Clone No. 2 (antibody, human IgG4 S228P, kappa, V domains shown)
VH: B1 VH
VL: DIQMTQSPSSLSASVGDRVTITCKSSQSLLDSGNQKNFLTWYQQKPGQAPRLLIYWASTRESGIPPRFSGSGYGTDFTLTINNIESEDAAYYFCQNDYSYPYTFGQGTKVEIKR
B6: Clone No. 16 (antibody, human IgG4 S228P, kappa, V domains shown)
VH: B4 VH with I37V, S40A, S42G, R43Q, L48M
VL: EIVLTQSPDFQSVTPKEKVTITCKSSQSLLDSGNQKNFLTWYQQKPGQAPRLLIYWASTRESGVPSRFSGSGSGTDFTFTISSLEAEDAATYYCQNDYSYPYTFGQGTKVEIKR
B7: Clone No. 3 (antibody, human IgG4 S228P, kappa, V domains shown)
VH: B4 VH
VL: B5 VL

The binders below were run against PD-1 (assay: competition binding, 1st experiment; rank among the clones; competitor not given).
PD-1, sequence (chain, as listed by the source limits assumed): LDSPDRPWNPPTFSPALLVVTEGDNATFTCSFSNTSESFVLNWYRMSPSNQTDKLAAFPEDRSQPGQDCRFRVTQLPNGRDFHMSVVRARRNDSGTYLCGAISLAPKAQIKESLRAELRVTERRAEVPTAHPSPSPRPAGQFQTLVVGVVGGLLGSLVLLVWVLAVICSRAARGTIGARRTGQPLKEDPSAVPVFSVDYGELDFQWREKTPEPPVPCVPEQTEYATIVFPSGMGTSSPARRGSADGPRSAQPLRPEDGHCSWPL
B1 was tested, and the Competition Binding, 1st exp. (ranking) was 7. B2 gave a Competition Binding, 1st exp. (ranking) of 8. B3 gave a Competition Binding, 1st exp. (ranking) of 5. B4 showed a Competition Binding, 1st exp. (ranking) of 15. With B5 the Competition Binding, 1st exp. (ranking) was 3. B6 showed a Competition Binding, 1st exp. (ranking) of 16. With B7 the Competition Binding, 1st exp. (ranking) was 8.

What follows are binders tested against PD-1 (assay: competition binding, 2nd experiment; rank among the clones; competitor not given).
B1 was tested, and the Competition Binding, 2nd exp. (ranking) was 2. B2 showed a Competition Binding, 2nd exp. (ranking) of 16. B3 gave a Competition Binding, 2nd exp. (ranking) of over 4. With B4 the Competition Binding, 2nd exp. (ranking) was 15. With B5 the Competition Binding, 2nd exp. (ranking) was 2. For B6, the Competition Binding, 2nd exp. (ranking) was 15. B7 showed a Competition Binding, 2nd exp. (ranking) of 14.

The binders below were run against PD-1 (assay: FACS; rank of the clone among the humanized BAP049 clones; cells and conditions not described in this filing).
B1 was tested, and the Ranking, FACS data was 2. With B2 the Ranking, FACS data was 3. Binder B3 has a Ranking, FACS data of 5. B4 was tested, and the Ranking, FACS data was 14. Work on B5 yielded a Ranking, FACS data of 6. For B6, the Ranking, FACS data was 15. Binder B7 has a Ranking, FACS data of 7.
